Data reported in US20210214460A1 (AstraZeneca / MedImmune, published 2021).
Like-named read-outs stand apart in the source and are kept apart here.

T1: membrane-bound human BCMA (human, UniProt Q02223 1-184)
T1 sequence (looked up): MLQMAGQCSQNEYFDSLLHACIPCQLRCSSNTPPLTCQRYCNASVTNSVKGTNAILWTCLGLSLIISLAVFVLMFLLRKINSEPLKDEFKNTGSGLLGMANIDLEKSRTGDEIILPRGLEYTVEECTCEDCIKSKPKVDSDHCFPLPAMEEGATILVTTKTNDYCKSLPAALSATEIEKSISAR

T2: soluble BCMA (sBCMA) in conditioned media collected from Ad293 cells expressing human BCMA (human, UniProt Q02223 1-54)
T2 sequence (looked up): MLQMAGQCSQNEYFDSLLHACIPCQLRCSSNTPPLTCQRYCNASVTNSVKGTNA

T3: monomeric human sBCMA (GenScript) (human, UniProt Q02223 1-54)
T3 construct: extracellular domain; also called monomeric BCMA; monomeric (soluble) BCMA
T3 sequence (looked up): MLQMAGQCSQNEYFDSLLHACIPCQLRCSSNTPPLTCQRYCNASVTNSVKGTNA


What was measured:
[1] = target: T1, membrane-bound human BCMA; assay: cell-based or functional assay
[2] = target: soluble BCMA (sBCMA) in conditioned media collected from Ad293 cells expressing human BCMA (human) (UniProt Q02223); assay: cell-based or functional assay
[3] = target: T1, membrane-bound human BCMA; assay: cell-based or functional assay; remark: listed apart in the source
[4] = target: T2, soluble BCMA (sBCMA) in conditioned …; assay: cell-based or functional assay
[5] = target: T1, membrane-bound human BCMA; assay: cell-based or functional assay; remark: listed apart in the source
[6] = target: T1, membrane-bound human BCMA; assay: flow cytometry on NCI-H929 cells (endogenous BCMA), printed as apparent affinity
Description: (§1) Binding of 15B2GL, I09, L15, and J6M0 to membrane-bound human BCMA was evaluated using flow cytometry in multiple myeloma and plasma cell leukemia cell lines that endogenously express BCMA (NCI-H929 and MM.1S, respectively). Binding of 15B2GL, 109, L15 to membrane-bound human BCMA was also evaluated in Ad293 cells expressing human BCMA. Binding assays were performed by incubating the anti-BCMA antibodies with 200,000 cells for 30 minutes at 4° C. followed by two washes with PBS+2% FBS (FACS Buffer). A range of antibody concentrations were evaluated using a 12-point, 3-fold dilution series. Cells were then incubated with 5 ug/mL goat-anti human IgG-AF647 secondary antibodies (Thermo Fisher Scientific, Waltham, Mass.) at 4° C., followed by two washes in PBS+2% FBS. Cells were resuspended in 200 uL PBS+2% FBS+DAPI.
(§2) Fluorescence of live, single cells was measured using a BD Biosciences LSRII cytometer and BD FACSDiva™ software (BD Biosciences, San Jose, Calif.). Data were analyzed using FlowJo™ software (FlowJo, LLC, Ashland, Oreg.). Mean fluorescence intensity values were used to determine percentage bound and EC50 was determined using Prism™ software (GraphPad Software Inc, La Jolla, Calif.).

[7] = target: T1, membrane-bound human BCMA; assay: flow cytometry on MM.1S cells (endogenous BCMA), printed as apparent affinity
Description: as §1, §2

[8] = target: T3, monomeric human sBCMA (GenScript); assay: SPR (ProteOn XPR36), antibody captured by anti-Fc, sBCMA 100-6.25 nM as analyte
Description: The binding of 15B2GL monoclonal antibody and optimized clones I09, L15, P10, N22, and M02 (described in Example 1) was assessed using monomeric human sBCMA (GenScript, Piscataway, N.J.) using a ProteOn™ XPR36 instrument (Bio-Rad, Hercules, Calif.). The binding of J6M0 also was assessed for comparison. Standard amine coupling was used to immobilize 25 μg/ml anti-Fc polyclonal antibody (Jackson ImmunoResearch, West Grove, Pa.) prepared in 10 mM sodium acetate buffer (pH 4.5) to the surface of a ProteOn™ GLC biosensor chip (Bio-Rad, Hercules, Calif.) pre-activated with 20 mM EDAC (1-ethyl-3-(3-dimethylaminopropyl)carbodiimide hydrochloride) and 5 mM Sulfo-NHS (N-hydroxysulfosuccinimide) at a density of ˜200-600 resonance units (RU). 15B2GL, I09, L15, P10, N22, M02, and J6M0 were subsequently injected at a concentration of 1 μg/ml for capture by the immobilized anti-Fc polyclonal antibody. The sensorgram was recorded by flowing two-fold serial dilutions of sBCMA prepared in PBS (pH 7.4) with 0.005% (v/v) Tween®-20, ranging from 100-6.25 nM, over the captured surface for 150 seconds at 75 μL/minute with dissociation time of 600 seconds. ProteOn™ data analysis software was used to analyze the data.

[9] = target: T1, membrane-bound human BCMA; assay: flow cytometry on Ad293 cells expressing human BCMA, printed as apparent affinity
Description: as §1, §2

Binder	IC50 (ng/mL) of killing of MM.1S cells with 0 ng/mL sBCMA [1] [ng/mL]	IC50 (ng/mL) of killing of MM.1S cells with 75 ng/mL sBCMA [1] [ng/mL]	IC50 (ng/mL) of killing of MM.1S cells with 270 ng/mL sBCMA [1] [ng/mL]	IC50 (ng/mL) of killing of MM.1S cells with 720 ng/mL sBCMA [1] [ng/mL]	Fold loss of potency, killing of MM.1S cells with 0 ng/mL sBCMA (reference) [2] [fold]	Fold loss of potency, killing of MM.1S cells with 75 ng/mL sBCMA [2] [fold]	Fold loss of potency, killing of MM.1S cells with 270 ng/mL sBCMA [2] [fold]	Fold loss of potency, killing of MM.1S cells with 720 ng/mL sBCMA [2] [fold]	IC50 (ng/mL) of killing of MM.1S cells with 0 ng/mL sBCMA [3] [ng/mL]	IC50 (ng/mL) of killing of MM.1S cells with 75 ng/mL sBCMA [3] [ng/mL]	IC50 (ng/mL) of killing of MM.1S cells with 270 ng/mL sBCMA [3] [ng/mL]	IC50 (ng/mL) of killing of MM.1S cells with 720 ng/mL sBCMA [3] [ng/mL]	Fold loss of potency, killing of MM.1S cells with 0 ng/mL sBCMA (reference) [4] [fold]	Fold loss of potency, killing of MM.1S cells with 75 ng/mL sBCMA [4] [fold]	Fold loss of potency, killing of MM.1S cells with 270 ng/mL sBCMA [4] [fold]	Fold loss of potency, killing of MM.1S cells with 720 ng/mL sBCMA [4] [fold]	further results
J6M0-SG3249 antibody-drug conjugate (antibody, INN chains, looked up, V domains shown, SG3249 (tesirine) drug payload) VH: QVQLVQSGAEVKKPGSSVKVSCKASGGTFSNYWMHWVRQAPGQGLEWMGATYRGHSDTYYNQKFKGRVTITADKSTSTAYMELSSLRSEDTAVYYCARGAIYDGYDVLDNWGQGTLVTVSS VL: DIQMTQSPSSLSASVGDRVTITCSASQDISNYLNWYQQKPGKAPKLLIYYTSNLHSGVPSRFSGSGSGTDFTLTISSLQPEDFATYYCQQYRKLPWTFGQGTKLEIK	4.82	12.8	32.3	92.9	1	2.66	6.7	19.3	–	–	–	–	–	–	–	–	–
J6M0-mc-MMAF antibody-drug conjugate (antibody, INN chains, looked up, V domains shown, mc-MMAF drug payload) VH: QVQLVQSGAEVKKPGSSVKVSCKASGGTFSNYWMHWVRQAPGQGLEWMGATYRGHSDTYYNQKFKGRVTITADKSTSTAYMELSSLRSEDTAVYYCARGAIYDGYDVLDNWGQGTLVTVSS VL: DIQMTQSPSSLSASVGDRVTITCSASQDISNYLNWYQQKPGKAPKLLIYYTSNLHSGVPSRFSGSGSGTDFTLTISSLQPEDFATYYCQQYRKLPWTFGQGTKLEIK	29.3	55.5	160	1460	1	1.9	5.45	49.8	–	–	–	–	–	–	–	–	–
15B2GL-SG3249 antibody-drug conjugate (antibody, V domains shown, PBD payload SG3249 conjugated site-specifically; residue not stated; DAR 1.82) VH: EVQLVESGGGLVKPGGSLRLSCAASGFTFRSYSMNWVRQAPGKGLEWVSSISGSSNYIYYADSVKGRFTISRDNAKNSLYLQMNSLRAEDTAVYYCARGGNYYVEYFQYWGQGTLVTVSS VL: EIVLTQSPGTLSLSPGERATLSCRASQYISSNYLAWYQQKPGQAPRLLIYGASNRATGIPDRFSGSGSGTDFTLTISRLEPEDFAVYYCQQYGSSPITFGQGTKLEIK	–	–	–	–	–	–	–	–	14.5	16.1	22.9	29.1	1	1.11	1.58	2.01	IC50 (ng/mL), in vitro cytotoxicity (CellTiter-Glo, 96 h), EJM cells [5]: 153 ng/mL; IC50 (ng/mL), in vitro cytotoxicity (CellTiter-Glo, 96 h), JJN-3 cells [5]: 36.3 ng/mL; IC50 (ng/mL), in vitro cytotoxicity (CellTiter-Glo, 96 h), L-363 cells [5]: 31.4 ng/mL; IC50 (ng/mL), in vitro cytotoxicity (CellTiter-Glo, 96 h), MM.1R cells [5]: 8.64 ng/mL; IC50 (ng/mL), in vitro cytotoxicity (CellTiter-Glo, 96 h), MM.1S cells [5]: 26.8 ng/mL; IC50 (ng/mL), in vitro cytotoxicity (CellTiter-Glo, 96 h), NCI-H929 cells [5]: 5.99 ng/mL; IC50 (ng/mL), in vitro cytotoxicity (CellTiter-Glo, 96 h), OPM-2 cells [5]: 201 ng/mL; IC50 (ng/mL), in vitro cytotoxicity (CellTiter-Glo, 96 h), U266B1 cells [5]: 39.7 ng/mL
I09-SG3249 antibody-drug conjugate (antibody, V domains shown, PBD payload SG3249 conjugated site-specifically; residue not stated; DAR 1.82) VH: EVQLVESGGGLVKPGGSLRLSCAASGFTFSSYSMNWVRQAPGKGLEWVSSISGSSNYIYYADSVKGRFTISRDNAKNSLYLQMNSLRAEDTAVYYCARGGNYFVEYFQQWGQGTLVTVSS VL: EIVLTQSPGTLSLSPGERATLSCRASQYISSNYLAWYQQKPGQAPRLLIYGASNRATGIPDRFSGSGSGTDFTLTISRLEPEDFAVYYCQQYSSDPITFGQGTKLEIK	–	–	–	–	–	–	–	–	2.81	3.79	5.55	16.2	1	1.35	1.98	5.75	–
I09 (lead optimized clone of 15B2GL) (antibody, V domains shown, Cloned into an IgG mammalian expression vector ("Maia") designed for ADC conjugation; also called 109 [sic]) VH: EVQLVESGGGLVKPGGSLRLSCAASGFTFSSYSMNWVRQAPGKGLEWVSSISGSSNYIYYADSVKGRFTISRDNAKNSLYLQMNSLRAEDTAVYYCARGGNYFVEYFQQWGQGTLVTVSS VL: EIVLTQSPGTLSLSPGERATLSCRASQYISSNYLAWYQQKPGQAPRLLIYGASNRATGIPDRFSGSGSGTDFTLTISRLEPEDFAVYYCQQYSSDPITFGQGTKLEIK	–	–	–	–	–	–	–	–	–	–	–	–	–	–	–	–	EC50 [6]: 5.4 nM; EC50 [7]: 4.8 nM; Kd [8]: 9.8 nM; EC50 [9]: 5.3 nM
